Measurements as given in US20250051443A1 (NATIONAL RESEARCH COUNCIL OF CANADA, published 2025).

Experiments:
human CD3 [1] = biological target: T1, human CD3 (human, UniProt P07766 23-207; P09693 23-182; P04234 22-171); assay: cell-based or functional assay
human CD3 [2] = biological target: T1, human CD3; assay: cell-based or functional assay; remark: listed apart in the source
human CD3 [3] = biological target: T1, human CD3; assay: flow cytometry, hybridoma supernatant on CD3+ Jurkat cells
In short: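 Hybridoma supernatants stained onto CD3+ Jurkat T-cells and analysed by flow cytometry; specific binding taken as mean fluorescence intensity increase over CD3-negative J.RT3-T3.5 cells. Mouse IgG and anti-GFP supernatant served as negative controls, AF488-labelled OKT3 as positive control.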

human CD3 [4] = biological target: T1, human CD3; assay: apparent KD (KDapp), flow cytometry titration on Jurkat cells
In short: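 Jurkat cells incubated 2 h on ice with 1/3 serial dilutions of purified mouse mAbs from 300 nM, then FITC anti-mouse Fc F(ab′)2 for 1 h. Binding read by flow cytometry on 2,000 viable single cells, with propidium iodide exclusion.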

human CD3 [5] = biological target: T1, human CD3; assay: flow competition on Jurkat, 100 nM unlabeled mAb; competitor AF488-SK7 1.5 nM
In short: (§1)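 Jurkat cells incubated with a fixed concentration of AF488-labeled anti-CD3 mAb plus 100 nM unlabeled mAb, with competition read by flow cytometry as impaired labeled-mAb binding. In-house AF488-OKT3 mIgG2b was desalted and checked for integrity by UPLC-SEC.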

human CD3 [6] = biological target: T1, human CD3; assay: flow competition on Jurkat, 100 nM unlabeled mAb; competitor AF488-UCHT1 5 nM
In short: as §1

human CD3 [7] = biological target: T1, human CD3; assay: apparent KD (KDapp), flow cytometry titration on purified primary human T cells
In short: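 Freshly isolated human T cells from PBMCs (negative pan-T selection), 1×10⁵ per test, stained 2 h at 4 °C with eight-point mAb dilutions from 300 or 100 nM, then APC anti-mouse IgG secondary 30 min. Background-subtracted flow MFI fitted by one-site specific binding with Hill slope for KDapp.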

human CD3 [8] = biological target: T1, human CD3; assay: flow competition on Jurkat, 100 nM unlabeled mAb; competitor AF488-SP34.2 20 nM
In short: as §1

human CD3 [9] = biological target: T1, human CD3; assay: flow competition on Jurkat, 100 nM unlabeled mAb; competitor AF488-OKT-3 mIgG2b 1.5 nM
In short: as §1

B1: F332-7C9 (antibody, mouse IgG2a, V domains shown)
VH: QVQLQQSGPELVKPGASVRISCKASGYTFTSHYLHWVKQRPGQGFEWIGWIYPGDGNTRYNEKFKDRATLTADKSSSTAYLHLSSLTSEDSAVYFCARDAGYYFDYWGQGTTLAVSS
VL: DIVMSQSPSSLAVSAGEKVTMSCKSSQSLLNSRTRKNYLAWYQQKPGQSLKVLIYWASTRESGVPDRFTGSGSGTDFTLTISSVQAEDLAVYYCKQSYSLRTFGGGTKLEIK
notes: also called F332-7C9-2; F332-7C9 (5C7, 7D10)
- % max ref. OKT3 (dTomato activation) (human CD3 [1]): 91%
- EC50 of dTomato induction (CD69 promoter), Jurkat-CD69-dTomato cells, 24 h (human CD3 [1]): 0.24 mg/L
- IC50, indirect ADC surrogate growth inhibition (anti-mouse-DM1) on Jurkat cells (human CD3 [2]): 0.045 nM
- Span, indirect ADC surrogate growth inhibition on Jurkat cells (human CD3 [2]): 96%
- MFI (human CD3 [3]): 285 MFI
- Kd (human CD3 [4]): 0.5 nM
- % residual fluorescence of labeled mAb (human CD3 [5]): 42%
- % residual fluorescence of labeled mAb (human CD3 [6]): 68%
- Kd (human CD3 [7]): 0.16 nM
- % residual fluorescence of labeled mAb (human CD3 [8]): 9%
- % residual fluorescence of labeled mAb (human CD3 [9]): 82%
